# Assay results reported in patent US5451522A, “Genes encoding and method of expressing an enzyme: phthalyl amidase” (priority 1994, dated 1995).
# T1: phthalyl amidase (Xanthobacter agilis, UniProt P0C2Y0)
# T1 construct: 42-aa signal peptide removed
# T1 sequence (P0C2Y0 whole entry, looked up): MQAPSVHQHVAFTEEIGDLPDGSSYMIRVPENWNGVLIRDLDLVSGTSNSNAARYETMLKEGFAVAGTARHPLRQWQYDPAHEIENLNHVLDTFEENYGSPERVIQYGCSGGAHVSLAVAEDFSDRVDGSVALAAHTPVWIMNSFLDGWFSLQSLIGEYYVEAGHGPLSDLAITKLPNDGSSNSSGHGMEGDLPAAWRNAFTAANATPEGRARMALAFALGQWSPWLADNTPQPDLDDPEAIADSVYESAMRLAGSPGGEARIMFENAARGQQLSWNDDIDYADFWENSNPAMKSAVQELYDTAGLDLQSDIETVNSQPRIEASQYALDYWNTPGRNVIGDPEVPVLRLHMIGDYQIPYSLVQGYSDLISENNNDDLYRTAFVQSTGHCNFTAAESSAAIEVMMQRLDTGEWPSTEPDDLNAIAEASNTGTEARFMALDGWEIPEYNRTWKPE
# What was measured:
# [1] = molecular target: phthalyl-L-Asp-L-Phe-OMe (compound XIV)
# [2] = substrate: CCCCCCC(C(=O)O)n1cnc(NC(=O)c2c(F)cccc2C(=O)O)c1; test: Kinetic parameters for phthalyl amidase; type: biochemical, Xanthobacter agilis; settings: other: 32° C., pH 8.2; II, XVII, XVIII with 0.9 μg/ml enzyme, III and XI with 5.14 μg/ml; pH 8.2; 32.0 °C
# Procedure: (§1) The kinetic parameters of the enzyme were determined for several representative substrates. Compounds II, XVII, and XVIII were tested using 0.9 μg/ml of enzyme. Compounds III and XI were tested using 5.14 μg/ml of enzyme. Substrate concentrations were between 0 and 25 mM and reaction time was between 2 and 20 minutes, depending on the substrate used. […] Km is the Michaelis constant for enzyme kinetics, Vmax is the maximal rate of reaction calculated by the Michaelis-Menten equation, and Kcat is the catalytic constant for an enzyme reaction.
# [3] = substrate: O=C(O)CNC(=O)c1ccccc1C(=O)O; test: Kinetic parameters for phthalyl amidase; type: biochemical, Xanthobacter agilis; settings: other: 32° C., pH 8.2; II, XVII, XVIII with 0.9 μg/ml enzyme, III and XI with 5.14 μg/ml; pH 8.2; 32.0 °C
# Procedure: as §1
# [4] = substrate: O=C(O)C1=C(Cl)CCC2C(NC(=O)c3ccccc3C(=O)O)C(=O)N12; test: Kinetic parameters for phthalyl amidase; type: biochemical, Xanthobacter agilis
# Procedure: as §1
# [5] = substrate: CCCCCCC(C(=O)O)n1cnc(NC(=O)c2ccccc2C(=O)O)c1; test: Kinetic parameters for phthalyl amidase; type: biochemical, Xanthobacter agilis; settings: other: 32° C., pH 8.2; II, XVII, XVIII with 0.9 μg/ml enzyme, III and XI with 5.14 μg/ml; pH 8.2; 32.0 °C
# Procedure: as §1
# [6] = substrate: O=C(O)c1ccccc1C(=O)Nc1ccc([N+](=O)[O-])c(C(=O)O)c1; test: Kinetic parameters for phthalyl amidase; type: biochemical, Xanthobacter agilis; settings: other: 32° C., pH 8.2; II, XVII, XVIII with 0.9 μg/ml enzyme, III and XI with 5.14 μg/ml; pH 8.2; 32.0 °C
# Procedure: as §1
# phthalyl amidase [7] = molecular target: T1, phthalyl amidase; test: Effect of pH on phthalyl amidase activity (substrate III, HPLC); type: biochemical; settings: 50 mM potassium phosphate, 32° C.
# Procedure: The effect of pH on the reaction rate of the analytical scale purified enzyme was determined using phthalamido carbacephem (III) as substrate. [drawing 5]
# A typical reaction mixture consisted of 1 ml total volume and contained 0.1 mM III, 0.1 μM phthalyl amidase in 50 mM potassium phosphate buffer (pH 5.5-9.0) at 32° C. for 20 minutes. The reactions were stopped by the addition of 1 ml methanol. After removal of precipitate by centrifugation, an aliquot of the supernatant fraction (typically 30 μ) was monitored for the beta-lactam nucleus and phthalic acid by HPLC using a Zorbax C8 column (0.46×15 cm; MacMod Analytical Inc., Chadds Ford, Pa.). The two reaction products were eluted by a mobile phase constructed as continuous mixed gradients from (a) 1% ACN (acetonitrile)/0.2% TFA (trifluoroacetic acid) and (b) 80% ACN/0.2% TFA as follows: 1) 0% (b), 3 min; 2) 0-50% (b), 0.5 min; 3) 50-100% (b), 3 min; 4) 100% (b), 2.5 min; 5) 100-0% (b), 0.1 min; and 6) 0% (b), 5 min. At a flow rate of 1.5 ml/min, retention times of the beta-lactam nucleus and phthalic acid, as measured at 254 nm, were 2.3 and 7.2 min, respectively.
# phthalyl amidase [8] = molecular target: T1, phthalyl amidase; test: Optimum salt concentration; type: biochemical; settings: 32° C., substrate III
# Procedure: Test reactions were carried out similar to Example 6 except that buffer concentrations ranging from 10 to 200 mM at 32° C. were examined. All other conditions and analyses were the same.
# phthalyl amidase [9] = molecular target: T1, phthalyl amidase; test: Stability of phthalyl amidase (ionic strength, pH, temperature); type: physicochemical
# Procedure: The stability of phthalyl amidase at pH values ranging from 6-9 was determined as described in Example 5 at 30° C. in both 20 and 200 mM potassium phosphate buffer. […] In 200 mM buffer, the enzyme retained at least 80% of its activity for 100 hours irrespective of the pH of the incubating medium.
# The phthalyl amidase enzyme was also tested for stability at varying temperatures. The enzyme was incubated at pH 8.2 in the temperature range of 4°-50° C. for 48 hours in 50 and 200 mM phosphate buffer. […] In 200 mM buffer, 80% of the enzyme activity was retained in temperatures up to 35° C. and 30% of the enzyme activity was retained after 48 hours incubation at 40° C.
# phthalyl amidase [10] = molecular target: T1, phthalyl amidase; test: Optimum reaction temperature; type: biochemical; settings: substrate III, 50 mM potassium phosphate, pH 8.2
# Procedure: Test reactions were carried out similar to Example 5 except that all incubations were performed in 50 mM potassium phosphate buffer at pH 8.2. Solutions of the substrate were pre-incubated for 5 minutes at temperatures between 2° and 60° C. The enzymatic reaction was initiated by the addition of phthalyl amidase and stopped by the addition of 1 ml methanol. Specific activity of the enzyme was determined by monitoring the hydrolysis of III by HPLC as in Example 5.
molecule,measurement,setting,value
"phthalyl amidase (mature enzyme, purified from Xanthobacter agilis) (enzyme, N-terminus blocked (attempts to sequence the N-terminus of the purified enzyme failed)) QAPSVHQHVAFTEEIGDLPDGSSYMIRVPENWNGVLIRDLDLVSGTSNSNAARYETMLKEGFAVAGTARHPLRQWQYDPAHEIENLNHVLDTFEENYGSPERVIQYGCSGGAHVSLAVAEDFSDRVDGSVALAAHTPVWIMNSFLDGWFSLQSLIGEYYVEAGHGPLSDLAITKLPNDGSSNSSGHGMEGDLPAAWRNAFTAANATPEGRARMALAFALGQWSPWLADNTPQPDLDDPEAIADSVYESAMRLAGSPGGEARIMFENAARGQQLSWNDDIDYADFWENSNPAMKSAVQELYDTAGLDLQSDIETVNSQPRIEASQYALDYWNTPGRNVIGDPEVPVLRLHMIGDYQIPYSLVQGYSDLISENNNDDLYRTAFVQSTGHCNFTAAESSAAIEVMMQRLDTGEWPSTEPDDLNAIAEASNTGTEARFMALDGWEIPEYNRTWKPE",Relative Activity (hydrolysis of the substrate by HPLC) (relative activity (compound III = 100.0)),[1],118
"phthalyl amidase (Xanthobacter agilis) (protein, 42-aa signal peptide removed) QAPSVHQHVAFTEEIGDLPDGSSYMIRVPENWNGVLIRDLDLVSGTSNSNAARYETMLKEGFAVAGTARHPLRQWQYDPAHEIENLNHVLDTFEENYGSPERVIQYGCSGGAHVSLAVAEDFSDRVDGSVALAAHTPVWIMNSFLDGWFSLQSLIGEYYVEAGHGPLSDLAITKLPNDGSSNSSGHGMEGDLPAAWRNAFTAANATPEGRARMALAFALGQWSPWLADNTPQPDLDDPEAIADSVYESAMRLAGSPGGEARIMFENAARGQQLSWNDDIDYADFWENSNPAMKSAVQELYDTAGLDLQSDIETVNSQPRIEASQYALDYWNTPGRNVIGDPEVPVLRLHMIGDYQIPYSLVQGYSDLISENNNDDLYRTAFVQSTGHCNFTAAESSAAIEVMMQRLDTGEWPSTEPDDLNAIAEASNTGTEARFMALDGWEIPEYNRTWKPE",Km,[2],170 µM
same,Km,[3],140 µM
same,Km,"[4]; other: 50 mM potassium phosphate buffer, pH 8.0, 30° C., pH 8.0, 30.0 °C",900 µM
same,Km,"[4]; other: 32° C., pH 8.2, II, XVII, XVIII with 0.9 μg/ml enzyme, III and XI with 5.14 μg/ml, pH 8.2, 32.0 °C",900 µM
same,Km,[5],90 µM
same,Km,[6],50 µM
phthalyl amidase: enzyme from Xanthobacter agilis that removes the phthalyl moiety from phthalyl-containing amides (protein) QAPSVHQHVAFTEEIGDLPDGSSYMIRVPENWNGVLIRDLDLVSGTSNSNAARYETMLKEGFAVAGTARHPLRQWQYDPAHEIENLNHVLDTFEENYGSPERVIQYGCSGGAHVSLAVAEDFSDRVDGSVALAAHTPVWIMNSFLDGWFSLQSLIGEYYVEAGHGPLSDLAITKLPNDGSSNSSGHGMEGDLPAAWRNAFTAANATPEGRARMALAFALGQWSPWLADNTPQPDLDDPEAIADSVYESAMRLAGSPGGEARIMFENAARGQQLSWNDDIDYADFWENSNPAMKSAVQELYDTAGLDLQSDIETVNSQPRIEASQYALDYWNTPGRNVIGDPEVPVLRLHMIGDYQIPYSLVQGYSDLISENNNDDLYRTAFVQSTGHCNFTAAESSAAIEVMMQRLDTGEWPSTEPDDLNAIAEASNTGTEARFMALDGWEIPEYNRTWKPE,Specific Activity,"phthalyl amidase [7]; pH 7.0, substrate III 0.1 mM",125.4 μmol/min/μmol enzyme
same,Specific Activity,"phthalyl amidase [7]; pH 7.2, substrate III 0.1 mM",130.4 μmol/min/μmol enzyme
same,Specific Activity,"phthalyl amidase [7]; pH 7.4, substrate III 0.1 mM",155.2 μmol/min/μmol enzyme
same,Specific Activity,"phthalyl amidase [7]; pH 7.6, substrate III 0.1 mM",172.5 μmol/min/μmol enzyme
same,Specific Activity,"phthalyl amidase [7]; pH 7.8, substrate III 0.1 mM",184.2 μmol/min/μmol enzyme
same,Specific Activity,"phthalyl amidase [7]; pH 8.0, substrate III 0.1 mM",195.3 μmol/min/μmol enzyme
same,Specific Activity,"phthalyl amidase [7]; pH 8.2, substrate III 0.1 mM",201.2 μmol/min/μmol enzyme
same,Specific Activity,"phthalyl amidase [7]; pH 8.4, substrate III 0.1 mM",208.0 μmol/min/μmol enzyme
same,Specific Activity,"phthalyl amidase [7]; pH 8.6, substrate III 0.1 mM",181.7 μmol/min/μmol enzyme
same,Specific Activity,"phthalyl amidase [7]; pH 8.8, substrate III 0.1 mM",185.1 μmol/min/μmol enzyme
same,Specific Activity,"phthalyl amidase [7]; pH 9.0, substrate III 0.1 mM",33.1 μmol/min/μmol enzyme
same,Specific Activity,phthalyl amidase [8]; K Phosphate buffer 10 mM,148 μmol/min/μmol enzyme
same,Specific Activity,phthalyl amidase [8]; K Phosphate buffer 50 mM,300 μmol/min/μmol enzyme
same,Specific Activity,phthalyl amidase [8]; K Phosphate buffer 100 mM,350 μmol/min/μmol enzyme
same,Specific Activity,phthalyl amidase [8]; K Phosphate buffer 200 mM,360 μmol/min/μmol enzyme
same,Specific Activity,phthalyl amidase [8]; NH4 Acetate buffer 10 mM,25 μmol/min/μmol enzyme
same,Specific Activity,phthalyl amidase [8]; NH4 Acetate buffer 50 mM,50 μmol/min/μmol enzyme
same,Specific Activity,phthalyl amidase [8]; NH4 Acetate buffer 100 mM,75 μmol/min/μmol enzyme
same,Specific Activity,phthalyl amidase [8]; NH4 Acetate buffer 200 mM,100 μmol/min/μmol enzyme
same,Specific Activity,phthalyl amidase [8]; Tris-HCl buffer 10 mM,73 μmol/min/μmol enzyme
same,Specific Activity,phthalyl amidase [8]; Tris-HCl buffer 50 mM,230 μmol/min/μmol enzyme
same,Specific Activity,phthalyl amidase [8]; Tris-HCl buffer 100 mM,275 μmol/min/μmol enzyme
same,Specific Activity,phthalyl amidase [8]; Tris-HCl buffer 200 mM,300 μmol/min/μmol enzyme
same,Optimum ionic strength for stability,phthalyl amidase [9],≥ 200 mM
same,optimum stability pH,phthalyl amidase [9],8.0±0.4
same,pH range in which the enzyme is stable,phthalyl amidase [9],6-9
same,time within which all enzyme activity was lost,"phthalyl amidase [9]; 20 mM potassium phosphate buffer, any pH 6-9, 30° C.",≤ 2 h
same,time within which all enzyme activity was lost,"phthalyl amidase [9]; 50 mM phosphate buffer, pH 8.2, incubation temperature above 40° C.",≤ 48 h
same,enzyme activity retained,"phthalyl amidase [9]; 50 mM phosphate buffer, pH 8.2, temperatures below 25° C., 48 hours",90%
same,enzyme activity retained,"phthalyl amidase [9]; 200 mM phosphate buffer, pH 8.2, 40° C., 48 hours",30%
same,enzyme activity retained,"phthalyl amidase [9]; 200 mM potassium phosphate buffer, pH 6-9, 30° C., 100 hours",at least 80%
same,temperature up to which good activity is retained,phthalyl amidase [9]; high salt (200 mM),up to 40 °C
same,temperature up to which good activity is retained,phthalyl amidase [9]; low salt (50 mM),up to 30 °C
same,enzyme activity below 10° C. and above 50° C. (in words),phthalyl amidase [10],Little enzyme activity
same,temperature of maximum reaction rate,phthalyl amidase [10],34 °C
